Tested on: MS2 coat protein
Assay: apparent KD of MS2 coat protein; higher = weaker reporter binding
Conditions: Eterna round: R107
Protocol: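 RNA-MaP round R107: designed RNA switches with theophylline, tryptophan, arginine or FMN aptamers are transcribed on-chip within common flanks. They are titrated with SNAP-549-labelled MS2 coat protein in RNA-MaP buffer (100 mM Tris pH 7.5, 80 mM KCl, 4 mM MgCl2), without ligand or with the indicated ligand. Median apparent KD per design.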

[1] = input ligand: theophylline 20 uM
[2] = input ligand: theophylline 2 mM
[3] = input ligand: tryptophan 2.4 mM

Sequence	apparent KD of MS2 coat protein (input ligand: arginine 13.2 mM)	apparent KD of MS2 coat protein (input ligand: none)	apparent KD of MS2 coat protein [1]	apparent KD of MS2 coat protein [2]	apparent KD of MS2 coat protein [3]
AAAAUAAACUCGGCCGCCACUCAACGGACCCUUUGGACAUGAGGAUCACCCAUGUAUUUUGGAAAGAGGACCGGGAGAAAUAAAA [Exclusion - Trytophan B]	0.00832 µM	0.00835 µM	0.0178 µM	0.0117 µM	0.0122 µM
AAAAUAAAUAAAACACGUAACAUGAAGGAUACCAGACAGGAAACUGUCCCUUGGCAGCCUCUACAUGAGGAUCACCCAUGUCGUG [Mat - Same State Theophlline A - Mod of Eli - D17]	0.112 µM		0.128 µM		0.266 µM
AAAAUAGAAGGAAGACAAAUAGAUACAGAAGGAGCGUAGGAAACUACAGGUAGGUCGCUGGAAAACAUGAGGAUCACCCAUGUAG [SSArg A #22 Slice of Pi Skeleton]	0.0315 µM	0.0406 µM	0.054 µM	0.0469 µM	0.0426 µM
AAAAUCCUAUCUGAGGAUCACCCAGGUGAAGGAGCGCCCGAAAGGGCAGGUAGGUCGCACCUGAGGAUCACCCUGGUAACCUAAA [ArgEX 10 #DoubleMS2 #OpenEnded #AlternativeMS2]	0.0857 µM	0.102 µM	0.105 µM	0.123 µM	0.0885 µM
AAACAUGAGGAUCACCCAUGUCCUCCUGUCCGAGGACCGGUACGGCCGCCACUCGGUUCUCGGGAGGAUGGUCAAAGACUAUCCA [Omei Trp A SS B v9]	0.12 µM		0.327 µM	0.332 µM	
AAACAUGAGGAUCACCCAUGUCCUCGUGAUCGAGGACCGGUACGGCCGCCACUCGGUCCUCGCGAGGUGGAGUCAAAGACUCCAA [Omei Trp A SS A v7]	0.0739 µM	0.182 µM	0.215 µM	0.115 µM	0.0695 µM
AAACGCCACGGAAGGAGCGACAUGAGGAUCACCCAUGUAGAAGUGGCGGAUGCACCCUCCUGUCAGGUAGGUCGCCGUGCGCCAA [XArg-B24]	0.0171 µM	0.0212 µM	0.039 µM	0.0297 µM	0.0224 µM
AAAGACAUGAGGAUCACCCAUGUGGGUGGGCGAGGACCGGUACGGCCGCCACUCGUGGGCGGGAAGGGAUAUUUAAUAAGGAAGA [same state--tryptophan A 1st shot]	0.05 µM	0.102 µM	0.155 µM	0.272 µM	0.131 µM
AACAGACGAGACGAUACCAGUCUCUUAGCGCACAUGAGGAUCACCCAUGUUGGCAAGCUCGACCCUUGGCAGCGUACCUUUGAUC [theeternabot_sameState_MS2_Theo_B_6]	0.0238 µM		0.0343 µM		0.0243 µM
AACAUACAAUUUUAGGUGGAUAUAAGGCGGCGAGGACCGGUACGGCCGCCACUCGCGUACAUGAGGAUCACCCAUGUCUGAAACU [Same State - Tryptophan A (Freestyle 5)]	0.0146 µM	0.0198 µM	0.0281 µM	0.0289 µM	0.0244 µM
AACAUGAGCACGGCCGCCACUCCAUGAACAUGAGGAUCACCCAUACACAUGAGGAUCACCCAUGUGAGGACCGGGUGUCCAUGUG [Exclusion Tryptophan B 2]	0.0126 µM		0.0187 µM	0.0165 µM	
AACAUGAGGAUCACCCAUGUCUGAACUGAAGGAGCGCUAAAUAAGGCAGGUAGGUCGCGGAAUUUUAUAUAUAUAUAUAUAUGGG [9.E]	0.0137 µM	0.0256 µM	0.0399 µM	0.0346 µM	0.0205 µM
AACAUGAGGAUCACCCAUGUUAAGUAUGAAGGAGCGUCGGAAACGACAGGUAGGUCGCAUACUUGGCCUUGUACUUCGUGUGUCU [#02 Exclusion - Arginine A]	0.0142 µM	0.0143 µM	0.0179 µM	0.0144 µM	0.0147 µM
AACGUAUACAGAAGGAGCGUGAAUUAUAUUACUCAUUCUUAUACAUGAGGAUCACCCAUGUCACAGGUAGGUCGCUGUAUUCGUA [JR_ExcArginiB_Sub019]	0.0819 µM	0.106 µM	0.0919 µM	0.111 µM	0.0816 µM
AACGUAUACAGAAGGAGCGUGAUUUAUAUUUCUUUAACAUAUACAUGAGGAUCACCCAUGUCACAGGUAGGUCGCUGUAUUCGUA [JR_ExcArginiB_Sub023]	0.0336 µM	0.0311 µM	0.0401 µM	0.0326 µM	0.0308 µM
AACGUCUUGUCGGCCGCCACUGUAUGGUGCGUGACAUGAAACAUGAGGAUCACCCAUGUAGCAUGCAGGACCGGGACAGUGCCAA [Beriaran]	0.00749 µM		0.0139 µM	0.0116 µM	
AACUGGACCCGUGAUACCAGAGACAUGAGGAUCACCCAUGUACAUGAGGAUCACCCAUGUCUCCCUUGGCAGCACCGCAGGGAGC [Exclusion Theophylline B GF 13]	0.0457 µM		0.127 µM		0.128 µM
AAGGUGAUCCGUGAUACCAGCUCAACAUGAGGAUCACCCAUGUAAGCCUGGAAACAGGCGAGCCCUUGGCAGCACGGUAAUAAUA [(M)'-(Theo1)-(Ms2)-(Theo2)-(M'')]	0.0126 µM		0.0145 µM		0.0126 µM
AAUAACAUGAGGAUCACCCAUGUAAAAGAUACCAGAUGCAUGAUGAUCCCUUGGCAGCUUAAAACGCGAUUGAUUACAAUCGCGA [Mat - Same State Theophlline A - Mod of Eli - D12]	0.041 µM		0.0779 µM		0.0275 µM
AAUAACGUGAGGAUCACCCACGUAAAAGAUACCAGAGUGAUGAUCCUCCCUUGGCAGCUUAACGCUGAUUGAUUACAAUCAGCGA	0.0495 µM	0.0587 µM	0.123 µM	0.213 µM	0.0496 µM
AAUAAGAUGAGGAUCACCCAUCUAAAAGAUACCAGAGUGAUGAUCCUCCCUUGGCAGCUUAACGCUGAUUGAUUACAAUCAGCGA	0.0217 µM	0.0472 µM	0.124 µM	0.121 µM	0.0253 µM
AAUAAGCAGCUGCAUCAUGGGUGAGCAGAUACCAGCUAGGAAACUAGCCCUUGGCAGCUGCAACAUGAGGAUCACCCAUGUAAUA [(T)'-(M)'-(T1)-(T2)-(M1)-(M2)_Design5]	0.0471 µM	0.0427 µM	0.108 µM	0.0463 µM	0.0347 µM
AAUAAUAACAUGGGUGAAGUCGUACCAUAACGAGGACCGGUACGGCCGCCACUCGAACAUGAGGAUCACCCAUGUAGGUACGACA [M'-T'-T-MS2-T'' - Design 9]	0.0376 µM	0.0866 µM	0.11 µM	0.0852 µM	0.0437 µM
AAUAAUAAGGCGGCCGCCACUACACAUGAGGAUCACCCAUGUCUCGCGGGCUUGCGUUGGGAAUGUAGGACCGGGCCAAUAAUAA [Exclusion - Tryptophan B (Freestyle 10)]	0.0143 µM		0.0258 µM	0.0279 µM	
AAUACCGGUCCUCGAAGUGAUCCUCAUGAACGAGGACCGGUACGGCCGCCACUCGAUAACAUGAGGAUCACCCAUGUAAUAAUAA [|T'-M'-Trp-Ms2|_Design4]	0.0728 µM	0.0639 µM	0.0931 µM	0.115 µM	0.0706 µM
AAUAUUUGCCACAUGAGGAUCACCCAUGUGCGAGGACCGGUACGGCCGCCACUCGGUCGGUGGUUAAUGAAGAUAAACAAUAAUG [XTryp A #11]	0.0077 µM	0.012 µM	0.0157 µM	0.0115 µM	0.0112 µM
AAUCAUGAAAACAUGACAUGAGGAUCACUCCGAGGACCGGUACGGCCGCCACUCGCGAGGAGGCACAUGAGGAUCACCCAUGUUA [SS Tryp A #1]	0.0316 µM		0.114 µM	0.148 µM	
